In paper PMC9712776 (2022):

B1: dynamin-2 (human Dyn2 isoform 1), wild type [human] / GST-tagged SH3 domain of endophilin [mouse] (parent complex)
chain 1: MGNRGMEELIPLVNKLQDAFSSIGQSCHLDLPQIAVVGGQSAGKSSVLENFVGRDFLPRGSGIVTRRPLILQLIFSKTEHAEFLHCKSKKFTDFDEVRQEIEAETDRVTGTNKGISPVPINLRVYSPHVLNLTLIDLPGITKVPVGDQPPDIEYQIKDMILQFISRESSLILAVTPANMDLANSDALKLAKEVDPQGLRTIGVITKLDLMDEGTDARDVLENKLLPLRRGYIGVVNRSQKDIEGKKDIRAALAAERKFFLSHPAYRHMADRMGTPHLQKTLNQQLTNHIRESLPALRSKLQSQLLSLEKEVEEYKNFRPDDPTRKTKALLQMVQQFGVDFEKRIEGSGDQVDTLELSGGARINRIFHERFPFELVKMEFDEKDLRREISYAIKNIHGVRTGLFTPDLAFEAIVKKQVVKLKEPCLKCVDLVIQELINTVRQCTSKLSSYPRLREETERIVTTYIREREGRTKDQILLLIDIEQSYINTNHEDFIGFANAQQRSTQLNKKRAIPNQGEILVIRRGWLTINNISLMKGGSKEYWFVLTAESLSWYKDEEEKEKKYMLPLDNLKIRDVEKGFMSNKHVFAIFNTEQRNVYKDLRQIELACDSQEDVDSWKASFLRAGVYPEKDQAENEDGAQENTFSMDPQLERQVETIRNLVDSYVAIINKSIRDLMPKTIMHLMINNTKAFIHHELLAYLYSSADQSSLMEESADQAQRRDDMLRMYHALKEALNIIGDISTSTVSTPVPPPVDDTWLQSASSHSPTPQRRPVSSIHPPGRPPAVRGPTPGPPLIPVPVGAAASFSAPPIPSRPGPQSVFANSDLFPAPPQIPSRPVRIPPGIPPGVPSRRPPAAPSRPTIIRPAEPSLLD
chain 2: not shown

Variants of: B1
Assay: GST pulldown; 12 µg GST-endophilin-SH3, 6 µg purified Dyn2; parent: 1; read off a plot
Variant chain 1 S848E has a ratio to parent of about 0.93. chain 1 S848A showed a ratio to parent of about 1.1.
